Here are results for 52 sequences from the supplement of paper PMC11780869.

The test system of the data set is Bacillus subtilis. Description: cleaved RNA product abundance (RNA/gDNA barcode ratio) relative to median wild-type variant (ratio to wild type); higher = more accumulation of the downstream cleavage product. The note with it: cleavage site: cggR-gapA (positions -7 to +36 mutated). The procedure: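 MPRA in B. subtilis. Mutagenized RNase Y cleavage-site regions (9% mutation rate) were inserted into a barcoded reporter mRNA (truncated aprE or tetM). Cells were grown in LB at 37°C to OD600 0.3. The cleaved RNA isoform was gel-purified and its barcodes counted; the RNA:gDNA barcode ratio was normalised to the median wild-type variant, and the median over barcodes is reported per variant. The printed sequence is the variable window only; the reporter flanks are not printed.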

Where [1] appears, read: experiment (reporter, strain, medium): exp 4a: truncated aprE reporter, strain BJT201 with 2% xylose (RNase J1 expressed).
[2] abbreviates: experiment (reporter, strain, medium): exp 2b: truncated aprE reporter, strain BJT200.

Take “ACAGACGAAGGAGCCGCAAAGAAATTATTAAGGGATGAATAATCCCTCCATATAAATATCTCTCACTTATTTAAA”: under setting [1], the “cleaved RNA product abundance” value came to 0.338.
With “ACAGACGAAGGAGCCGCAAAGAAATTATTAAGGGATGAATAATCCCTCGATATAAATATCTCTCACTTATTTAAA”, the “cleaved RNA product abundance” value under setting [1] was found to be 0.395.
Regarding “ACAGACGAAGGAGCCGCAAAGAAATTATTAAGGGATGAATAATCCCTCTATATAAATATCTCTCACTTATTTAAA”, the “cleaved RNA product abundance” value by setting is: under setting [2], 0.418; under setting [1], 0.319.
On to “ACAGACGAAGGAGCCGCAAAGAAATTATTAAGGGATGAATAATCCCTGAATATAAATATCTCTCACTTATTTAAA”, for which the “cleaved RNA product abundance” value was 0.49 under setting [2] and 0.548 under setting [1].
Turning to “ACAGACGAAGGAGCCGCAAAGAAATTATTAAGGGATGAATAATCCCTTAATATAAATATCTCTCACTTATTTAAA”, the “cleaved RNA product abundance” value under setting [1] worked out at 0.451.
In the case of “ACAGACGAAGGAGCCGCAAAGAAATTATTAAGGGATGAATAATCCGTCAATATAAATATCTCTCACTTATTTAAA”, the “cleaved RNA product abundance” value is, setting by setting: under setting [2], 0.192; under setting [1], 0.261.
Turning to “ACAGACGAAGGAGCCGCAAAGAAATTATTAAGGGATGAATAATCCTTCAATATAAATATCTCTCACTTATTTAAA”, the “cleaved RNA product abundance” value under setting [1] worked out at 0.674.
The same measure, in the same setting: the same measure for “ACAGACGAAGGAGCCGCAAAGAAATTATTAAGGGATGAATAATCGCTCAATATAAATATCTCTCACTTATTTAAA”: 0.101; for “ACAGACGAAGGAGCCGCAAAGAAATTATTAAGGGATGAATAATCTCTCAATATAAATATCTCTCACTTATTTAAA”: 0.476.
On to “ACAGACGAAGGAGCCGCAAAGAAATTATTAAGGGATGAATAATGCCTCAATATAAATATCTCTCACTTATTTAAA”, for which the “cleaved RNA product abundance” value under setting [2] came to 0.172 and the “cleaved RNA product abundance” value under setting [1] is 0.132.
As for “ACAGACGAAGGAGCCGCAAAGAAATTATTAAGGGATGAATAATTCCTCAATATAAATATCTCTCACTTATTTAAA”, the “cleaved RNA product abundance” value reads like this: under setting [2], 0.457; under setting [1], 0.415.
Turning to “ACAGACGAAGGAGCCGCAAAGAAATTATTAAGGGATGAATACTCCCTCAATATAAATATCTCTCACTTATTTAAA”, the “cleaved RNA product abundance” value under setting [2] was 0.416.
“ACAGACGAAGGAGCCGCAAAGAAATTATTAAGGGATGAATAGTCCCTCAATATAAATATCTCTCACTTATTTAAA”: the “cleaved RNA product abundance” value under setting [1] was determined as 0.937.
On to “ACAGACGAAGGAGCCGCAAAGAAATTATTAAGGGATGAATATTCCCTCAATATAAATATCTCTCACTTATTTAAA”, for which, under setting [1], the “cleaved RNA product abundance” value turned out to be 0.595.
In the case of “ACAGACGAAGGAGCCGCAAAGAAATTATTAAGGGATGAATGATCCCTCAATATAAATATCTCTCACTTATTTAAA”, under setting [1], the “cleaved RNA product abundance” value was found to be 0.661.
Consider “ACAGACGAAGGAGCCGCAAAGAAATTATTAAGGGATGAATTATCCCTCAATATAAATATCTCTCACTTATTTAAA”, for which the “cleaved RNA product abundance” value is, setting by setting: under setting [2], 0.539; under setting [1], 0.711.
On to “ACAGACGAAGGAGCCGCAAAGAAATTATTAAGGGATGACTAATCCCTCAATATAAATATCTCTCACTTATTTAAA”, for which the “cleaved RNA product abundance” value under setting [2] is 0.453 and the “cleaved RNA product abundance” value under setting [1] is 0.573.
In the case of “ACAGACGAAGGAGCCGCAAAGAAATTATTAAGGGATGACTAATCTCTCAATATAAATATCTCTCACTTATTTAAA”, under setting [1], the “cleaved RNA product abundance” value is 0.582.
As to “ACAGACGAAGGAGCCGCAAAGAAATTATTAAGGGATGATTAATCCCTCAATATAAATATCTCTCACTTATTTAAA”, the “cleaved RNA product abundance” value is, setting by setting: under setting [2], 0.816; under setting [1], 0.599.
Consider “ACAGACGAAGGAGCCGCAAAGAAATTATTAAGGGATGGATAATCCCTCAATATAAATATCTCTCACTTATTTAAA”, for which, under setting [1], the “cleaved RNA product abundance” value worked out at 0.62.
Take “ACAGACGAAGGAGCCGCAAAGAAATTATTAAGGGATGTATAATCCCTCAATATAAATATCTCTCACTTATTTAAA”: the “cleaved RNA product abundance” value runs as follows: under setting [2], 0.711; under setting [1], 0.789.
For “ACAGACGAAGGAGCCGCAAAGAAATTATTAAGGGATTAATAATCCCTCAATATAAATATCTCTCACTTATTTAAA”, the “cleaved RNA product abundance” value by setting is: under setting [2], 0.978; under setting [1], 0.912.
Turning to “ACAGACGAAGGAGCCGCAAAGAAATTATTAAGGGCTGAATAATCCCTCAATATAAATATCTCTCACTTATTTAAA”, the “cleaved RNA product abundance” value under setting [1] came to 0.498.
In the case of “ACAGACGAAGGAGCCGCAAAGAAATTATTAAGGGGTGAATAATCCCTCAATATAAATATCTCTCACTTATTTAAA”, the “cleaved RNA product abundance” value was found to be 0.541 under setting [2] and 0.734 under setting [1].
For the sequence “ACAGACGAAGGAGCCGCAAAGAAATTATTAAGGGTTGAATAATCCCTCAATATAAATATCTCTCACTTATTTAAA”, the “cleaved RNA product abundance” value under setting [1] was 0.365.
Turning to “ACAGACGAAGGAGCCGCAAAGAAATTATTAAGGTATGAATAATCCCTCAATATAAATATCTCTCACTTATTTAAA”, the “cleaved RNA product abundance” value is 0.122 under setting [2] and 0.105 under setting [1].
For “ACAGACGAAGGAGCCGCAAAGAAATTATTAAGTGATGAATAATCCCTCAAAATAAATATCTCTCACTTATTTAAA”, in that order: 0.117 and 0.0994.
“ACAGACGAAGGAGCCGCAAAGAAATTATTAAGTGATGAATAATCCCTCAATATAAATATCTCTCACTTATTTAAA”: the “cleaved RNA product abundance” value reads like this: under setting [2], 0.107; under setting [1], 0.125.
As to “ACAGACGAAGGAGCCGCAAAGAAATTATTAATGAATGAATAATCCCTCAATATAAATATCTCTCACTTATTTAAA”, the “cleaved RNA product abundance” value under setting [1] was 0.152.
For the sequence “ACAGACGAAGGAGCCGCAAAGAAATTATTAATGGATGAATAATCCCTCAATATAAATATCTCTCACTTATTTAAA”, the “cleaved RNA product abundance” value under setting [2] was determined as 0.122 and the “cleaved RNA product abundance” value under setting [1] was 0.169.
In the same order, the values of “ACAGACGAAGGAGCCGCAAAGAAATTATTAATGTATGAATAATCCCTCAATATAAATATCTCTCACTTATTTAAA” are 0.117 and 0.111.
As to “ACAGACGAAGGAGCCGCAAAGAAATTATTACGGGATGAATAATCCCTCAATATAAATATCTCTCACTTATTTAAA”, under setting [1], the “cleaved RNA product abundance” value came out at 0.396.
As for “ACAGACGAAGGAGCCGCAAAGAAATTATTAGGGGATGAATAATCCCTCAATATAAATATCTCTCACTTATTTAAA”, the “cleaved RNA product abundance” value under setting [1] was 0.586.
As for “ACAGACGAAGGAGCCGCAAAGAAATTATTAGGGGATGAATAATCCCTCCATATAAATATCTCTCACTTATTTAAA”, the “cleaved RNA product abundance” value under setting [2] worked out at 0.188.
Consider “ACAGACGAAGGAGCCGCAAAGAAATTATTATGGGATGAATAATCCCTCAATATAAATATCTCTCACTTATTTAAA”, for which, under setting [1], the “cleaved RNA product abundance” value is 0.277.
On to “ACAGACGAAGGAGCCGCAAAGAAATTATTCAGGGATGAATAATCCCTCAATATAAATATCTCTCACTTATTTAAA”, for which the “cleaved RNA product abundance” value worked out at 0.575 under setting [2] and 0.747 under setting [1].
As to “ACAGACGAAGGAGCCGCAAAGAAATTATTTAGGGATGAATAATCCCTCAATATAAATATCTCTCACTTATTTAAA”, the “cleaved RNA product abundance” value under setting [1] turned out to be 0.718.
For “ACAGACGAAGGAGCCGCAAAGAAATTCTTAAGGGATGAATAATCCCTCAATATAAATATCTCTCACTTATTTAAA”, the “cleaved RNA product abundance” value reads like this: under setting [2], 0.186; under setting [1], 0.199.
Regarding “ACAGACGAAGGAGCCGCAAAGAAATTGTTAAGGGATGAATAATCCCTCAATATAAATATCTCTCACTTATTTAAA”, the “cleaved RNA product abundance” value under setting [2] is 0.377.
For “ACAGACGAAGGAGCCGCAAAGAAATTTTTAAGGGATGAATAATCCCTCAATATAAATATCTCTCACTTATTTAAA”, the “cleaved RNA product abundance” value is, setting by setting: under setting [2], 0.206; under setting [1], 0.264.
For “ACAGACGAAGGAGCCGCAAAGAACATATTAAGGGATGAATAATCCCTCAATATAAATATCTCTCACTTATTTAAA”, in that order: 0.607 and 0.499.
For “ACAGACGAAGGAGCCGCAAAGAACCTATTAAGGGATGAATAATCCCTCAATATAAATATCTCTCACTTATTTAAA”, the “cleaved RNA product abundance” value is, setting by setting: under setting [2], 0.18; under setting [1], 0.309.
As to “ACAGACGAAGGAGCCGCAAAGAACGTATTAAGGGATGAATAATCCCTCAATATAAATATCTCTCACTTATTTAAA”, the “cleaved RNA product abundance” value under setting [1] was 0.724.
For “ACAGACGAAGGAGCCGCAAAGAACTAATTAAGGGATGAATAATCCCTCAATATAAATATCTCTCACTTATTTAAA”, the “cleaved RNA product abundance” value under setting [1] was 0.321.
Still for that read-out and setting: the same measure for “ACAGACGAAGGAGCCGCAAAGAACTGATTAAGGGATGAATAATCCCTCAATATAAATATCTCTCACTTATTTAAA”: 0.238; for “ACAGACGAAGGAGCCGCAAAGAACTTAATAAGGAATGAATAATCCCTCAATATAAATATCTCTCACTTATTTAAA”: 0.133.
On to “ACAGACGAAGGAGCCGCAAAGAACTTAATAAGGGATGAATAATCCCTCAATATAAATATCTCTCACTTATTTAAA”, for which the “cleaved RNA product abundance” value under setting [1] was 0.167.
With “ACAGACGAAGGAGCCGCAAAGAACTTACTAAGGGATGAATAATCCCTCAATATAAATATCTCTCACTTATTTAAA”, the “cleaved RNA product abundance” value under setting [1] worked out at 0.237.
As to “ACAGACGAAGGAGCCGCAAAGAACTTATAAAGGGACGAATAATCCCTCAATATAAATATCTCTCACTTATTTAAA”, under setting [1], the “cleaved RNA product abundance” value worked out at 0.162.
For the sequence “ACAGACGAAGGAGCCGCAAAGAACTTATAAAGGGATGAATAATCCCTCAATATAAATATCTCTCACTTATTTAAA”, the “cleaved RNA product abundance” value under setting [2] stood at 0.24 and the “cleaved RNA product abundance” value under setting [1] was found to be 0.263.
In the case of “ACAGACGAAGGAGCCGCAAAGAACTTATCAAGGGATGAATAATCCCTCAATATAAATATCTCTCACTTATTTAAA”, under setting [1], the “cleaved RNA product abundance” value worked out at 0.32.
In the case of “ACAGACGAAGGAGCCGCAAAGAACTTATGAAGGGATGAATAATCCCTCAATATAAATATCTCTCACTTATTTAAA”, under setting [2], the “cleaved RNA product abundance” value worked out at 0.274.
